The results in this text go back to PMC5109244.

By stoichiometry N is commonly meant a count of units in the complex or per binding partner.

Assay [1] deals with full-length Δ4 DNGR-1 (mouse, long isoform; N81–T90 removed) (mouse). Put plainly: reducing SDS-PAGE and Western blot; Phoenix cells expressing full-length DNGR-1 lysed in 1% SDS in PBS; reducing conditions; anti-DNGR-1 (clone 397) detection; reduction-sensitive (type-1) dimers run as monomers. Background: In western blotting, separated proteins are transferred to a membrane and probed.

The target is the same in assay [2]. Description: reducing SDS-PAGE and Western blot; Phoenix cells expressing full-length DNGR-1 lysed in 1% SDS in 10 mM MES pH 6.1; reducing conditions; anti-DNGR-1 (clone 397) detection.
For assay [3], the target named is Δ3A mutant long mouse DNGR-1 ECD (all residues of block 3, L72–L82, replaced by alanines) (mouse). Description: non-reducing SDS-PAGE and Western blot; supernatants of 293F cells with FLAG-tagged ECD proteins, Laemmli buffer without reducing agent, HRP-conjugated anti-FLAG detection.
Assay [4] deals with Δ4A mutant long mouse DNGR-1 ECD (all residues of block 4, N81–T90, replaced by alanines) (mouse). Put plainly: reducing SDS-PAGE and Western blot; supernatants with FLAG-tagged ECD proteins, neat or diluted into PBS (neutral conditions); reduced with DTT (100 mM) or β-ME in Laemmli buffer; anti-FLAG detection.
Assay [5] shares this target. Put plainly: non-reducing SDS-PAGE and Western blot; supernatants of 293F cells with FLAG-tagged ECD proteins, Laemmli buffer without reducing agent, HRP-conjugated anti-FLAG detection.
Assay [6] concerns the target chimeric DNGR-1:dectin-1 ECD (neck region of long mouse DNGR-1 fused to the CTLD of dectin-1) (mouse). Described as above.
For assay [7], the target named is Δ6A mutant long mouse DNGR-1 ECD (all residues of block 6, Q95–S104, replaced by alanines) (mouse). Described as above.
Assay [8] has as its target full-length WT DNGR-1 (mouse, long isoform), transmembrane receptor (mouse). Description: reducing SDS-PAGE and Western blot; Phoenix cells expressing full-length DNGR-1 lysed in 1% SDS in PBS; reducing conditions; anti-DNGR-1 (clone 397) detection; reduction-sensitive (type-1) dimers run as monomers.
Assay [9] has the same target. Put plainly: reducing SDS-PAGE and Western blot; Phoenix cells expressing full-length DNGR-1 lysed in 1% SDS in 10 mM MES pH 6.1; reducing conditions; anti-DNGR-1 (clone 397) detection.
The target of assay [10] is Δ4 mutant long mouse DNGR-1 ECD (N81–T90 removed) (mouse). Description: reducing SDS-PAGE and Western blot; supernatants with FLAG-tagged ECD proteins, neat or diluted into PBS (neutral conditions); reduced with DTT (100 mM) or β-ME in Laemmli buffer; anti-FLAG detection.
The target is the same in assay [11]. Description: reducing SDS-PAGE and Western blot; supernatants with FLAG-tagged ECD proteins diluted into 10 mM MES pH 6.1; 100 mM DTT in Laemmli buffer; anti-FLAG detection; reduction-resistant (type-2) dimers.
Assay [12] deals with long mouse DNGR-1 ECD (extracellular domain of the long isoform of mouse DNGR-1, wild type) (mouse). Description: non-reducing SDS-PAGE and Western blot; purified long mouse ECD in PBS or 10 mM MES pH 6.1, Laemmli buffer or 8 M urea, no reducing agent.
Assay [13] shares this target. Description: reducing SDS-PAGE and Western blot; purified ECD diluted into buffers of low pH and low ionic strength (10 mM MES pH 6.1; 10 mM Tris; 36 buffers of pH 6.5–8.05 and 15–250 mM ionic strength); 100 mM DTT in Laemmli buffer; reduction-resistant (type-2) dimers.
Assay [14] has the same target. Put plainly: non-reducing SDS-PAGE and Western blot; supernatants of 293F cells with FLAG-tagged ECD proteins, Laemmli buffer without reducing agent, HRP-conjugated anti-FLAG detection.

Sequence of long mouse DNGR-1 ECD (extracellular domain of the long isoform of mouse DNGR-1, wild type) (domain or fragment) (Q8BRU4 113-235): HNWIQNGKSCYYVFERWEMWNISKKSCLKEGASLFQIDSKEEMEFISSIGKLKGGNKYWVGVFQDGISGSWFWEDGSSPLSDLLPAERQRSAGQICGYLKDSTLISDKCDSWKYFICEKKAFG
Sequence of full-length WT DNGR-1 (mouse, long isoform), transmembrane receptor (Q8BRU4 whole entry, canonical isoform): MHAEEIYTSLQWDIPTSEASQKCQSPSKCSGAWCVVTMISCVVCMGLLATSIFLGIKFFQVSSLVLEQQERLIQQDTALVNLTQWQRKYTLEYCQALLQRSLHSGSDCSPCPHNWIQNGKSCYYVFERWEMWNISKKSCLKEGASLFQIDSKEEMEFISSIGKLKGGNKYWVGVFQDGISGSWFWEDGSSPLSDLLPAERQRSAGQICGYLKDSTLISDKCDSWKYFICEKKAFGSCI

Regarding “full-length Δ4 DNGR-1 (mouse, long isoform; N81–T90 removed) (receptor)”, the stoichiometry N in assay [1] and in assay [2] was 2 each time. “Δ3A mutant long mouse DNGR-1 ECD (all residues of block 3, L72–L82, replaced by alanines) (domain or fragment)” gave a stoichiometry N in assay [3] of 2. For “Δ4A mutant long mouse DNGR-1 ECD (all residues of block 4, N81–T90, replaced by alanines) (domain or fragment)”, the stoichiometry N in assay [4] and in [5] was 2 in each case. Regarding “chimeric DNGR-1:dectin-1 ECD (neck region of long mouse DNGR-1 fused to the CTLD of dectin-1)”, in assay [6], the stoichiometry N amounted to 2.

“Δ6A mutant long mouse DNGR-1 ECD (all residues of block 6, Q95–S104, replaced by alanines) (domain or fragment)” came in with a stoichiometry N in assay [7] of 2. On to “full-length WT DNGR-1 (mouse, long isoform), transmembrane receptor”, for which the stoichiometry N in assay [8] and in assay [9] was 2 each time.

“Δ4 mutant long mouse DNGR-1 ECD (N81–T90 removed) (domain or fragment)”: the stoichiometry N in assay [10] and in [11] was 2 in each case. Regarding “long mouse DNGR-1 ECD (extracellular domain of the long isoform of mouse DNGR-1, wild type) (domain or fragment)”, the stoichiometry N in assay [12], in assay [13] and in assay [14] was 2 each time.
